Experimental data from paper PMC7984374.

Molecular target: fluorescein-labeled FITC-casein
Assay: fluorescence polarisation

Kd: 0.56 µM
Substance: ClpB_(K-12) (from UniProt P63284 1-857) (enzyme)
